# In publication PMC4765800, “Transcription factor StWRKY1 regulates phenylpropanoid metabolites conferring late blight resistance in potato”:
# Target: StWRKY1 (Solanum tuberosum, UniProt Q9LEC7 1-172)
# Experiment: EMSA; shift inhibited by excess unlabelled competitor; poly(dI-dC); EMSA: 20 ul with kit binding buffer (LightShift), 1 ul each of 1 ug/ul poly(dI-dC), 50% glycerol, 1% NP-40, 1 M KCl, 100 mM MgCl2, 200 mM EDTA; 3 ug protein, 20 fmol probe; 25 C, 20 min; pH not stated
# Details: protein: recombinant; label: 3' biotin; blunt
# Chain of StWRKY1 (Q9LEC7 entry or part of it): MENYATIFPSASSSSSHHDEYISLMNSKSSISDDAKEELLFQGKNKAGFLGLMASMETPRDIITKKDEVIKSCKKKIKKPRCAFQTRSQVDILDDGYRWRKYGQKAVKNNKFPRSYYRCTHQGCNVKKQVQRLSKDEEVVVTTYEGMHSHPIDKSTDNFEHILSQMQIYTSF
binder,measurement,value
THT promoter W1-box probe (dsDNA) DNA 1: TCGTCAGAGTTGACCTCCACCAACCA DNA 2: TGGTTGGTGGAGGTCAACTCTGACGA,binding result,binds
